Where two headings read alike, the source gives them in different places.

Assay in all cases: radioligand binding
Assay [1] concerns the target self-assembling peptide AcN-(KLDL)3-CNH2.
For assay [2] the target is unchanged. This is another data set of the same source.
For assay [3] the target is unchanged. This is another data set of the same source.

Turning to “^125I-TGF-β1 (radiolabelled transforming growth factor β1) (ligand)”, in assay [1], the percent of loaded released (cumulative), day 3 fell in the range of 13 to 16%; the percent of loaded released (cumulative), day 7 was 25%; the percent of loaded released (cumulative), day 14 was found to be 27%; the percent of loaded released (cumulative), day 21 is 32%. In assay [1], the percent of loaded retained in the hydrogel, day 21 is 68% and the uptake ratio (concentration in gel / concentration in bath) amounted to 18.5. Also, in assay [2], the uptake ratio (concentration in gel / concentration in bath) amounted to 85.8. Also, in assay [3], the percent of loaded released (cumulative), day 21 was found to be 44% and the percent of loaded retained in the hydrogel, day 21 was found to be 56%.

These data come from article PMC3849134.
